{"source": "paper PMC2821528", "about": "(Molecular Microbiology, 2009)", "molecules": {"B1": {"name": "Pal, soluble periplasmic domain (residues 65–173) (domain or fragment, E. coli, UniProt P0A912 65-173, looked up)", "chain": "LQQNNIVYFDLDKYDIRSDFAQMLDAHANFLRSNPSYKVTVEGHADERGTPEYNISLGERRANAVKMYLQGKGVSADQISIVSYGKEKPAVLGHDEAAYSKNRRAVLVY"}}, "key": {"[1]": {"target": "TolB (E. coli) (UniProt P0A855)", "test": "SPR"}, "[2]": {"target": "TolB (E. coli) (UniProt P0A855)", "test": "SPR", "remark": "listed apart in the source"}, "[3]": {"target": "Pal (Escherichia coli) (UniProt P0A912)", "conditions": "cited from earlier work"}, "[4]": {"target": "TolB (Escherichia coli) (UniProt P0A855)", "conditions": "cited from earlier work"}, "[5]": {"target": "TolB (Escherichia coli) (UniProt P0A855)", "conditions": "cited from earlier work", "remark": "listed apart in the source"}, "[6]": {"target": "TolB (E. coli, UniProt P0A855 22-430)", "test": "SEC"}}, "note": "Read-outs that look alike come from different tables or passages of the source."}
{"molecule": "TA_(1–107), 107-residue peptide of the translocation domain of colicin A (domain or fragment)", "values": [{"measurement": "Kd", "setting": "[1]", "result": 1600, "unit": "nM"}, {"measurement": "Kd", "setting": "[2]", "result": 24300, "unit": "nM"}]}
{"molecule": "TolB (from UniProt P0A855)", "values": [{"measurement": "Kd", "setting": "[3]", "result": 90, "unit": "nM"}]}
{"molecule": "Colicin E9 (from UniProt P09883)", "values": [{"measurement": "Kd", "setting": "[4]", "result": 90, "unit": "nM"}, {"measurement": "Kd", "setting": "[5]", "result": 1000, "unit": "nM"}]}
{"molecule": "B1", "values": [{"measurement": "binding result", "setting": "[6]", "result": "binds"}]}
